The values that follow come from publication PMC2138209.

This test addresses 7S subunit of the lemon shark 19S immunoglobulin (lemon shark, Negaprion brevirostris). The test can be described thus: AUC.

By stoichiometry N is commonly meant the number of molecules, sites or subunits per partner or assembly.

For “7S subunit of the lemon shark 19S immunoglobulin (complex)”, the stoichiometry N came out at 5.
